# Experimental data taken from PMC12415261 (Proceedings of the National Academy of Sciences of the …, 2025).
# B1: ALK3-Fc (homodimeric Fc-fusion of ALK3-ECD) [human] / Recombinant human BMP6, mammalian expressed (glycosylated) [modified: N-linked glycosylation at Asn454 (prehelical loop); N-linked glycosylation at Asn454 (prehelical loop)] [human] (parent complex)
# chain 1: QNLDSMLHGTGMKSDSDQKKSENGVTLAPEDTLPFLKCYCSGHCPDDAINNTCITNGHCFAIIEEDDQGETTLASGCMKYEGSDFQCKDSPKAQLRRTIECCRTNLCNQYLQPTLPPVVIGPFFDGSIR
# chain 2: SASSRRRQQSRNRSTQSQDVARVSSASDYNSSELKTACRKHELYVSFQDLGWQDWIIAPKGYAANYCDGECSFPLNAHMNATNHAIVQTLVHLMNPEYVPKPCCAPTKLNAISVLYFDDNSNVILKKYRNMVVRACGCH
# Variants of: B1
# Assay: SPR; top curve of the analyte series, read at the end of association (about 300 s); analyte concentrations not given; receptor-Fc captured by anti-human antibody; read off a plot
row,response,Variant
1,~9.5 RLU,chain 1 QNLDSMLHGTGMKSDSDQKKSENGVTLAPEDTLPFLKCYCSGHCPGDAINNTCITNGHCFAIIEEDDQGETTLASGCMKYEGSDFQCKDSPKAQLRRTIECCRTNLCNQYLQPTLPPVVIGPFFDGSIR [chain 1 D46G]
